Measured values taken from article PMC6486709.

Substrate: C/C(=C\Cc1c(O)c(Cl)c(C)c(C=O)c1O)CC/C=C(\C)[C@@H](O)C[C@@H]1OC1(C)C
Experiment: cells, lysate or membranes
Settings: microsomal fraction of ascI-expressing yeast

B1: AscI (Acremonium egyptiacum) (protein)
chain: MPQLAGKLILAGLIPLGAWVLHGFASCNGLIQMFEDFGKQTVLSDGVTDYTGAFTGLEGLDRLLRTLLNFFWPVANGHDWALSLHAFMFAGQGVPLLVLNMLEGARPGNKSLVVSYVTVFGILYMVVGLAIMAPLYLFLHLLTSRTATAPSKAKVAVDPNTAKAVGFGVFVGYVLPTIFMSLPHPSLLSTDTKVLSVVFWQAVPLWASVCAYFASTALGQSATSRSSSNLPSALGAVYAASLIIATATHVATFAISANLSDTWSGIFTFLIPPNPFNTDMRISSFLEGATWFLQWDYTMMSLAYMVWAIGIRHGVEVPRSSHHFETLGKIALRSMAKLLVMGPIGAALSLVWERDQLLWQLDSESGEKGEKNRSRRMSRKWMFS
  Km: 50.4 ± 11.1 µM
